The values that follow come from PMC11643043.

By stoichiometry N is commonly meant a count of units in the complex or per binding partner.

The target of this assay is soluble CD20^Avi. Briefly: SEC-MALS. (In general: Size exclusion chromatography separates by hydrodynamic size, large species first.)

The substance soluble CD20^Avi gave a stoichiometry N of 2.
